In general, Kd refers to the concentration at which binding is half-saturated. High values mean lower affinity, low ones higher affinity.

The target of experiment [1] is T1, HN receptor (HNR; CNTF-R/WSX-1/gp130) on F11 cells (Mus musculus, UniProt O70394+O88507).
T1 construct: endogenous in cells; host or cells: F11 neurohybrid cells
T1 sequence (O70394 25-623): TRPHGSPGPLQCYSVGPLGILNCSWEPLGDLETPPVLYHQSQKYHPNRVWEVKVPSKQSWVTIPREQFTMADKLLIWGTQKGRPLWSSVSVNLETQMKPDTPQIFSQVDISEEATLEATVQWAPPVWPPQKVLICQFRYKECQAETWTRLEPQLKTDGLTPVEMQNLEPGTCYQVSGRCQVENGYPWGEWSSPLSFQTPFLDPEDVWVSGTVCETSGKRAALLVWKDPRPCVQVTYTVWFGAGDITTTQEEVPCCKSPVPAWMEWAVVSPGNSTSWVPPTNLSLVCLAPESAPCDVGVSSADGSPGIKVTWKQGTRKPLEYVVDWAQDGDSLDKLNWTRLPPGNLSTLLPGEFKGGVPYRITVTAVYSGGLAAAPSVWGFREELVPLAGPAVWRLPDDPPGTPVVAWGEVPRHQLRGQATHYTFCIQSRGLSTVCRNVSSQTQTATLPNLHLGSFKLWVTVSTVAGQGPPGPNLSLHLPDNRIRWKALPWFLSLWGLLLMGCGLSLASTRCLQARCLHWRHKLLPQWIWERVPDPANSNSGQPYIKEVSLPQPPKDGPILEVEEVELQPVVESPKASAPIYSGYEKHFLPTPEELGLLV
T1 sequence (O88507 23-342): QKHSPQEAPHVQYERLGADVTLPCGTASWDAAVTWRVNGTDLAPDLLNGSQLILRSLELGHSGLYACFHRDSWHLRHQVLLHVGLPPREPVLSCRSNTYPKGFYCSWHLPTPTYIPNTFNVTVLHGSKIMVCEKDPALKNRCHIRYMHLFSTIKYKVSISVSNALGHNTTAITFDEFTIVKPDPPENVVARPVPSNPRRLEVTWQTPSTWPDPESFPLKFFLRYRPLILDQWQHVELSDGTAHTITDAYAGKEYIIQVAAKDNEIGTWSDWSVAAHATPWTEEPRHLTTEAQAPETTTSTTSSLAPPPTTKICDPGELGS
T1 sequence (Q00560 23-917 partner): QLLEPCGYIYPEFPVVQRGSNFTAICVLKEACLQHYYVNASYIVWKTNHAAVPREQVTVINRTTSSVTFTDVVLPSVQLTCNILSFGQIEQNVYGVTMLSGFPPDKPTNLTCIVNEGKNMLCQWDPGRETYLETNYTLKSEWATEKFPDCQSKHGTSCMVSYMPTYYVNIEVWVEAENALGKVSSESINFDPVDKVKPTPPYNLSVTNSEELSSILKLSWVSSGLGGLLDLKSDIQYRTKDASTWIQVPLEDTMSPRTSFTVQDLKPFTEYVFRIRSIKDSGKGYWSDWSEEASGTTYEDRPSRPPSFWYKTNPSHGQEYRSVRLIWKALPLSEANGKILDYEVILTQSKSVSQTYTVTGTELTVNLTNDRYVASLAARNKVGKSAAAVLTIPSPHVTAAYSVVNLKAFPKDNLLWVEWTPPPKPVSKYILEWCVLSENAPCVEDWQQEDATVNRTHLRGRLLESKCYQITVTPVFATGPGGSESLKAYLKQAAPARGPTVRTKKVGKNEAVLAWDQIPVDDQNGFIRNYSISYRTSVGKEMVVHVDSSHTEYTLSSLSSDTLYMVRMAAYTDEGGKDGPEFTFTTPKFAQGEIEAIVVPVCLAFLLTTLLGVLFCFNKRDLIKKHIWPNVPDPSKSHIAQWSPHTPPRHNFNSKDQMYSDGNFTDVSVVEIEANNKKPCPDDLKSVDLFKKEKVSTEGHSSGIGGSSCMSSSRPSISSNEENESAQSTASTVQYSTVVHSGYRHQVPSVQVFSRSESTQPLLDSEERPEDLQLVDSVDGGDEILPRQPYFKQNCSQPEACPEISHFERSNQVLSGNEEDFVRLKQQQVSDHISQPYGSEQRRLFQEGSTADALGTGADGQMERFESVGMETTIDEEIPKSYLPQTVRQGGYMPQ
The experiment can be described thus: Immunofluorescence-based binding assay (2): biotin-HN / biotin-HNG binding to F11 cells. Particulars: biotin-HN; F11 cells with endogenous HNR or transfected with CNTF-R/WSX-1/gp130. Here is the method:
A) F11 cells were seeded on 96-well plates coated with poly-L-lysine (7×10^3 cells/well). An indicated amount of biotin-HN or biotin-HNG was added to the cells with or without 10 μM of unlabelled HNG or HNA, followed by a binding assay based on immunofluorescence reaction (2) (left panels). On the other hand, F11 cells were transfected with 0.5 μg of pcDNA3.1/GS-human CNTF-R, pEF1/MycHis-human WSX-1, and 1.0 μg of pCAG-human gp130. At 24 hrs after the transfection, the cells were re-seeded on 96-well plates coated with poly-L-lysine (7×10^3 cells/well). After 36 hrs the re-seeding, an indicated amount of biotin-HN or biotin-HNG was added to the cells with or without 10 μM of unlabeled HNG or HNA, followed by a binding assay based on immunofluorescence reaction (2) (right panels).
B) F11 cells were transfected with 0.5 μg of pRNA-U1.6/Shuttle vector, pRNA-U6.1/Shuttle-WSX-1 siRNA, pRNA-U6.1/Shuttle-CNTF-R siRNA, both pRNA-U6.1/Shuttle-WSX-1 siRNA and pRNA-U6.1/Shuttle-CNTF-R siRNA (0.5 μg each), pRNA-U6.1/Shuttle-FPR2 siRNA or pRNA-U6.1/Shuttle-LIFR siRNA. The total amount of vectors was adjusted to be 1.0 μg by including a backbone vector. At 24 hrs after the transfection, an indicated amount of biotin-HNG was added with or without unlabeled HNG, followed by a binding assay based on immunofluorescence reaction (2) at 72 hrs after the transfection.
E) F11 cells on 6-well plate (7×10^4 cells/well) were transfected with 1.0 μg of pRNA-U6.1/Shuttle vector, pRNA-U6.1/Shuttle-Bax siRNA, or both pRNA-U6.1/Shuttle-WSX-1 siRNA and pRNA-U6.1/Shuttle-CNTF-R siRNA (0.5 μg each). At 72 hrs after the transfection, the cells were added with an indicated amount of biotin-HN with or without unlabeled HN or HNA (100 μM) and subjected to an HN-binding assay based on immunofluorescence.
F11 cells (7×10^4/well in 6-well plates) were replated into 96-well plates (7×10^3 cells/well) at 24 hrs after transfection with indicated amounts of the plasmids encoding mycHis-WSX or V5-CNTF-R, and with PCAG-human gp130 if required. At 36 hrs after transfection, the cells were added with biotin-labeled HN or HNG of indicated concentrations in the presence or the absence of HNG (S14G-HN) or HNA (C8A-HN) of indicated concentrations (Hashimoto et al., 2001 a). After 6 hrs incubation, they were fixed with 4% paraformaldehyde in PBS for 30 min. After washing with PBS, cells were stained with FITC-conjugated avidin (Molecularprobe, Eugene, Oreg., USA). Immunofluorescence intensity was measured (excitation=485 nm, emission=535 nm) with a spectrofluorometer (Wallac1420 ARVOsx Multi Label Counter). Immunohistochemical analysis was done with a laser-scanning, confocal microscope LSM (Carl Zeiss, Germany).

In experiment [2] the test system is primary cortical neurons (PCNs). As to the kind of experiment: Aβ neurotoxicity in primary cortical neurons, WST-8 / Calcein / LDH. The experiment is classed as cell-based, mouse. Particulars: 25 μM Aβ; for inhibition of neurotoxicity by Aβ: cytokine alone, physiological levels (up to 100 ng/ml). Here is the method:
B) PCNs were incubated with 25 μM Aβ (upper) in the presence of 10 μg of recombinant soluble human gp130 (lower “+”) or BSA (lower “−”). Cell viability was determined by WST-8 assay (upper) or Calcein fluorescence assay (lower) at 72 hr after the onset of treatment with Aβ.
C) PCNs were incubated with 25 μM Aβ (1-43) in the presence of 1 μg of neutralizing anti-mouse gp130 antibody (RX435) or control IgG. Cell viability and cell mortality were determined by Calcein fluorescence (left panel) and LDH assays (right panel), respectively, at 72 hr after the onset of treatment with Aβ (1-43).
[…] At 72 hr after incubation, the cells were harvested for WST-8 assays or/and Calcein fluorescence assays to show cell viability.
B) The soluble IL-6 receptor-α (sIL-6R) or the soluble CNTF-R (100 ng/ml) were added to the cells as in the above A), followed by the stimulation with its ligand, IL-6 or CNTF (100 ng/ml), respectively to show the effects on the neuronal cell death due to Aβ. The right and left graphs show the cell viabilities determined by WST-8 assays and Calcein fluorescence assays, respectively.
C) The neutralizing antibodies (1 μg) for the mouse gp130, mouse LIFR, mouse IL-11R and rat CNTF-R were added as in the above A), and cell viability was determined by Calcein fluorescence assays after 72 hours.
WST-8 assay was performed at 72 hrs after the treatment.
The primary culture of mouse cortical neurons was prepared as described previously (Sudo et al., 2000). Briefly, primary cortical neurons, obtained from embryonic day 14 (E14) ICR mice were seeded in poly-L-lysine-coated 96 well plates (Sumitomo Bakelite) at 2.5 or 5.0×10^4 cells/well in Neuron Medium (Sumitomo Bakelite) (Hashimoto et al., 2003; Niikura et al., 2004). Purity of neurons by this method was >98%. After 3 days, the culture medium was replaced with DMEM with N2 supplement. On the fourth day in vitro, 25 μM of Aβ (1-42) was added in association with indicated concentrations of HN or cytokines in the presence or the absence of soluble cytokine receptors or neutralizing antibodies. At 72 hrs after the onset of treatment, cell viability was assessed by WST-8 assay and/or Calcein fluorescence assay and cell mortality was assessed by the Trypan blue exclusion assay and LDH assay (Hashimoto et al, 2000, 2001 a b, 2003).

Regarding `CC[C@H](C)[C@H](NC(=O)[C@H](CCC(=O)O)NC(=O)[C@H](CO)NC(=O)[C@@H](NC(=O)[C@H](CC(C)C)NC(=O)[C@H](CC(C)C)NC(=O)[C@H](CC(C)C)NC(=O)[C@H](CC(C)C)NC(=O)[C@H](CS)NC(=O)[C@H](CO)NC(=O)[C@H](Cc1ccccc1)NC(=O)CNC(=O)[C@H](CCCNC(=N)N)NC(=O)[C@@H]1CCCN1C(=O)[C@H](C)NC(=O)[C@@H](N)CCSC)[C@@H](C)O)C(=O)N[C@@H](CC(=O)O)C(=O)N[C@@H](CC(C)C)C(=O)N1CCC[C@H]1C(=O)N[C@H](C(=O)N[C@@H](CCCCN)C(=O)N[C@@H](CCCNC(=N)N)C(=O)N[C@@H](CCCNC(=N)N)C(=O)N[C@@H](C)C(=O)O)C(C)C` [HN, Humanin], the Kd in experiment [1] is 1 to 10 µM.

B1: recombinant soluble human gp130: recombinant soluble human gp130 consisting of the extracellular domain of human gp130; dominant-negative form (protein, UniProt P40189 23-619, looked up)
extracellular domain: ELLDPCGYISPESPVVQLHSNFTAVCVLKEKCMDYFHVNANYIVWKTNHFTIPKEQYTIINRTASSVTFTDIASLNIQLTCNILTFGQLEQNVYGITIISGLPPEKPKNLSCIVNEGKKMRCEWDGGRETHLETNFTLKSEWATHKFADCKAKRDTPTSCTVDYSTVYFVNIEVWVEAENALGKVTSDHINFDPVYKVKPNPPHNLSVINSEELSSILKLTWTNPSIKSVIILKYNIQYRTKDASTWSQIPPEDTASTRSSFTVQDLKPFTEYVFRIRCMKEDGKGYWSDWSEEASGITYEDRPSKAPSFWYKIDPSHTQGYRTVQLVWKTLPPFEANGKILDYEVTLTRWKSHLQNYTVNATKLTVNLTNDRYLATLTVRNLVGKSDAAVLTIPACDFQATHPVMDLKAFPKDNMLWVEWTTPRESVKKYILEWCVLSDKAPCITDWQQEDGTVHRTYLRGNLAESKCYLITVTPVYADGPGSPESIKAYLKQAPPSKGPTVRTKKVGKNEAVLEWDQLPVDVQNGFIRNYTIFYRTIIGNETAVNVDSSHTEYTLSSLTSDTLYMVRMAAYTDEGGKDGPEFTFTTPKFAQGEIE
modifications: extracellular domain
notes: recombinant soluble human gp130 consisting of the extracellular domain of human gp130; dominant-negative form
As to B1, in experiment [2] (PCNs), the “effect on HN-mediated neuroprotection” value is on record as “complete suppression”.

B2: IL-11: recombinant cytokine of the IL-6 family (protein, UniProt P47873 22-199, looked up)
Interleukin-11: PGPPAGSPRVSSDPRADLDSAVLLTRSLLADTRQLAAQMRDKFPADGDHSLDSLPTLAMSAGTLGSLQLPGVLTRLRVDLMSYLRHVQWLRRAGGPSLKTLEPELGALQARLERLLRRLQLLMSRLALPQAAPDQPVIPLGPPASAWGSIRAAHAILGGLHLTLDWAVRGLLLLKTRL
For B2, the “inhibition of neurotoxicity by Aβ” value in experiment [2] is “did not inhibit”.

B3: OSM: human OncostatinM, recombinant cytokine (protein, UniProt P13725 26-221, looked up)
Oncostatin-M: AAIGSCSKEYRVLLGQLQKQTDLMQDTSRLLDPYIRIQGLDVPKLREHCRERPGAFPSEETLRGLGRRGFLQTLNATLGCVLHRLADLEQRLPKAQDLERSGLNIEDLEKLQMARPNILGLRNNIYCMAQLLDNSDTAEPTKAGRGASQPPTPTPASDAFQRKLEGCRFLHGYHRFMHSVGRVFSKWGESPNRSRR
For B3, the “inhibition of neurotoxicity by Aβ” value in experiment [2] is “did not inhibit”.

B4: CT-1: mouse cardiotropin-1, recombinant cytokine (protein, UniProt Q60753 1-203, looked up)
Cardiotrophin-1: MSQREGSLEDHQTDSSISFLPHLEAKIRQTHNLARLLTKYAEQLLEEYVQQQGEPFGLPGFSPPRLPLAGLSGPAPSHAGLPVSERLRQDAAALSVLPALLDAVRRRQAELNPRAPRLLRSLEDAARQVRALGAAVETVLAALGAAARGPGPEPVTVATLFTANSTAGIFSAKVLGFHVCGLYGEWVSRTEGDLGQLVPGGVA
Regarding B4, in experiment [2], the “inhibition of neurotoxicity by Aβ” value was “did not inhibit”.

Values taken from patent publication US8173771B2, “Humanin receptor or humanin-like polypeptide receptor” (Keio Univeristy, priority 2005, dated 2012).
